Data set [1] relates to CD13pos. HT1080 fibrosarcoma. The settings on record: mouse, in vivo; cited from earlier work. Here is the method:
The tumour-targeting potential of [^213Bi]Bi-DOTAGA-cKNGRE was also evaluated in HT1080 tumour-bearing CB17 mice. […] Although the tumourous tracer activity decreased from 30 to 90 min post-administration, relatively higher accumulation of the HT1080 neoplasms compared with the other organs at 90 min time point yields better tumour-to-background (T/M) ratios and image contrast. The tumour-to-organs ratio is ...

Data set [2] is described as follows: LogP measurement of [205/206Bi]Bi-DOTAGA-cKNGRE (n-octanol/water). Format: physicochemical. The settings on record: shake-flask n-octanol/water, 205/206Bi as surrogates for 213Bi, 10 µL tracer in saline + 0.49 mL water + 0.5 mL n-octanol, shaken 5 min, centrifuged 6000 rpm 5 min, gamma counter. On the procedure:
For the determination of LogP value we used ^205/206Bi isotopes as surrogates which were produced by GE PETtrace cyclotron using the method described by Lagunas-Solar et al.. The radiolabelling of the precursor was carried out as follows: 50 µL of 3 M NH4OAc buffer (pH 4) and 15 µL of 6 mM DOTAGA-cKNGRE aqueous solution were added to 50 µL [^205/206Bi]BiCl3 in 0.1 M HCl. The labelled complex was purified as described above. Then 10 µL of the purified [^205/206Bi]Bi-DOTAGA-cKNGRE in physiological saline (Salsol, TEVA, Debrecen, Hungary) was diluted with 0.49 mL water. It was then mixed with 0.5 mL n-octanol in a vial and shaken for 5 min. After centrifugation (6000 rpm, 5 min) the radioactivity of the sample from both the aqueous and n-octanol phase was measured with a Perkin Elmer Packard Cobra gamma counter. The LogP value was −2.59.

Data set [3] is described as follows: Serum stability of [205/206Bi]Bi-DOTAGA-cKNGRE. It counts as in vitro ADME. Conditions: mouse plasma (heading says serum); 50 µL tracer in saline + 50 µL mouse plasma, 90 min, radio-iTLC; read-out: RCP after 90 min incubation in serum. Here is the method:
Fifty μL of [^205/206Bi]Bi-DOTAGA-Bn-cKNGRE in physiological saline (Salsol, TEVA, Debrecen, Hungary) was added to the solution of fifty μL of mouse plasma. The RCP of the samples was determined by radio-iTLC at 0, 30, 60 and 90 min time points using the same method as described above. After 90 min the [^205/206Bi]Bi-DOTAGA-Bn-cKNGRE remained intact as the RCP of the sample taken from the mixture was above 95%, which meets the requirements for ^213Bi-labelled radiopharmaceuticals.

The next data set has as its system HT1080 fibrosarcoma. As to the kind of experiment: Cancer treatment study: tumour volume. It counts as in vivo, CB17 SCID mice. Conditions: approximately 5 MBq i.p. on days 7, 8, 10, 12, calliper, mean ± SD. On the procedure: (§1) Experimental tumour induction was carried out under inhalation anaesthesia with a dedicated small animal anaesthesia device (Tec3 Isoflurane Vaporizer, Eickemeyer Veterinary Equipment, Luton, UK) applying 3% isoflurane (Forane, AbbVie, Chicago, IL, USA), 0.4 L/min O2 and 1.4 L/min N2O. This was followed by depilation and disinfection subcutaneous (s.c.) inoculation of 1.5 × 10^6 HT1080 (human fibrosarcoma) cells in 100 μL (1/3 part of Matrigel and 2/3 part of saline) into the left shoulder area of the CB17 SCID mice. For tumour verification the study mice underwent in vivo [^68Ga]Ga-DOTAGA-cKNGRE-based PET imaging 10 ± 1 days post tumour cell inoculation. To evaluate the organ distribution pattern of the ^213Bi-labelled therapeutic peptide compounds, ex vivo biodistribution studies were also executed 10 ± 1 days following the HT1080 cell transplantation at an average tumour volume of 155 ± 20 mm^3. Thereafter, tumour sizes based on the largest and the smallest tumour diameters were registered ((largest diameter × smallest diameter^2)/2). We used calliper measurements for tumour growth determination.
Seven days after HT1080 cell inoculation the tumour-bearing animals were randomly classified into two subgroups: treatment-naïve group (control, n = 8) and [^213Bi]Bi-DOTAGA-cKNGRE-treated group (treated, n = 8). Approximately 5 MBq [^213Bi]Bi-DOTAGA-cKNGRE was intraperitoneally (i.p.) administered to the experimental mice of the treated cohort on the 7th, 8th, 10th and 12th experimental days. The control mice were i.p. injected with 150 μL saline solution applying the same time regime.
On the 7th, 8th, 10th and 12th days of the investigation at an average tumour volume of 26.56 ± 2.39 mm^3 CB17 SCID mice bearing HT1080 fibrosarcoma in their left shoulder area were i.p. injected with approximately 5 MBq [^213Bi]Bi-DOTAGA- cKNGRE. The treatment-naïve study mice i.p. received 150 μL saline solution on the same experimental days. In a bid to assess the therapeutic efficacy of the investigated probe, body weights (BW, expressed in grams/g ± SD) and tumour volume (mm^3 ± SD) of the small animals were registered. Calliper measurements were applied to evaluate tumour development.

A short description of the next data set: in vivo. Also on record: species or system CB17 SCID mice. Conditions: CB17 SCID, mouse, 5 MBq, total radioactivity. Here is the method:
as §1
To assess the organ distribution of [^213Bi]Bi-DOTAGA-cKNGRE, ex vivo investigations were performed. The HT1080 fibrosarcoma-bearing experimental mice were anaesthetised with Forane (5%) and were sacrificed at 30 and 90 min post administration of the radiopharmaceutical. After autopsy, selected tissues, organs and the tumour itself were removed, weighed wet and their radioactivity was measured on a calibrated gamma counter (Perkin-Elmer Packard Cobra, Waltham, MA, USA). Then, the activity was decay corrected to the time of the injection. The percent of administered dose per gram of tissue (%ID/g) was determined for all samples from the counts per minute values (CPM). We presented the ex vivo data as mean %ID/g ± SD.

One may read the tissue uptake as the share of the injected amount in each gram of the tissue.

“^68Ga-NOTA-Gly3-CNGRC [[^68Ga]Ga-NOTA-G3-NGR, ^68Ga-tagged CD13-affine peptide derivate, literature PET tracer]”: in data set [1], the tumour accumulation is reported as 4.96 ± 3.18 ID%/g.
For `N=C(N)NCCC[C@@H]1NC(=O)CNC(=O)[C@H](CC(N)=O)NC(=O)[C@H](CCCCNC(=S)Nc2ccc(CNC(=O)CCC(C(=O)O)N3CCN(CC(=O)O)CCN(CC(=O)O)CCN(CC(=O)O)CC3)cc2)NC(=O)CC[C@@H](C(N)=O)NC1=O` (some centres unmarked) [[^205/206Bi]Bi-DOTAGA-cKNGRE], the LogP value in data set [2] was −2.59. Also, the remaining at 1.5 h in data set [3] was greater than 95%.
`N=C(N)NCCC[C@@H]1NC(=O)CNC(=O)[C@H](CC(N)=O)NC(=O)[C@H](CCCCNC(=S)Nc2ccc(CNC(=O)CCC(C(=O)O)N3CCN(CC(=O)O)CCN(CC(=O)O)CCN(CC(=O)O)CC3)cc2)NC(=O)CC[C@@H](C(N)=O)NC1=O` (some centres unmarked) [[^213Bi]Bi-DOTAGA-cKNGRE, metal not drawn]: the tumour volume in the data set on HT1080 fibrosarcoma (day 7) came out at 28.25 ± 2.67 mm^3; in the data set with HT1080 fibrosarcoma (day 8) it was 23.33 ± 6.87 mm^3; with HT1080 fibrosarcoma (day 9, p ≤ 0.01 vs untreated) it was 35.36 ± 7.57 mm^3; in the data set with HT1080 fibrosarcoma (day 10, p ≤ 0.01 vs untreated), 58.33 ± 14.36 mm^3; with HT1080 fibrosarcoma (day 12, p ≤ 0.01 vs untreated), 112.50 ± 18.42 mm^3. Further, the tissue uptake at 0.5 h in the data set “in vivo” (HT1080 tumor) came out at 1.48 ± 0.18 %ID/g; in “in vivo” (blood) it was 2.72 ± 0.22 %ID/g; in “in vivo” (bone (femur)) it was 0.69 ± 0.38 %ID/g; in the data set “in vivo” (fat) it was 0.72 ± 0.05 %ID/g; in the data set “in vivo” (kidney) it was 11.4 ± 1.41 %ID/g; in “in vivo” (lung), 2.09 ± 0.74 %ID/g. For the same compound, the tissue uptake at 0.5 h in the data set “in vivo” (pancreas) was 0.57 ± 0.18 %ID/g; in the data set “in vivo” (stomach), 0.73 ± 0.04 %ID/g. The tissue uptake at 1.5 h in “in vivo” (HT1080 tumor) turned out to be 0.8 ± 0.16 %ID/g; in “in vivo” (kidney), 4.51 ± 1.21 %ID/g; in the data set “in vivo” (muscle) it was 0.06 ± 0.02 %ID/g; in “in vivo” (pancreas), 0.08 ± 0.03 %ID/g.

The values above are taken from article PMC9968005, “Therapeutic Performance Evaluation of ^213Bi-Labelled Aminopeptidase N (APN/CD13)-Affine NGR-Motif ([^213Bi]Bi-DOTAGA-cKNGRE) in Experimental Tumour Model: A Treasured Tailor for Oncology” (Pharmaceutics, 2023).
